T1: MMP2 (human, UniProt P08253 110-660, limits assumed)
T1 sequence (looked up): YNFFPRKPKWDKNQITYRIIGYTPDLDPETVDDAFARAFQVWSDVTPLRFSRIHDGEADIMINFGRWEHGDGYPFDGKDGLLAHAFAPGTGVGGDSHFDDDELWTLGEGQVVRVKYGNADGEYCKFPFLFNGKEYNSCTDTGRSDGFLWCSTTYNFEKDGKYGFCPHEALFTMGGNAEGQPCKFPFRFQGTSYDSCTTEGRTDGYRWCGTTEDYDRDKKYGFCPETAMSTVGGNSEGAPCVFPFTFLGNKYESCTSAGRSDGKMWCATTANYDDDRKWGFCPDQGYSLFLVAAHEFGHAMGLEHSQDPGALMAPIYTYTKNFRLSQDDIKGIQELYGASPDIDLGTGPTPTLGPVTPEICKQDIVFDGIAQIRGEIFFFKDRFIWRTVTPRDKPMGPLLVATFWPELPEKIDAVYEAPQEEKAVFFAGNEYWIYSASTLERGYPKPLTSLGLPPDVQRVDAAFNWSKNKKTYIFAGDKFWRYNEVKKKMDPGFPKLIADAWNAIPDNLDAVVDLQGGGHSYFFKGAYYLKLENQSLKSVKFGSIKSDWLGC

T2: MMP1 (human, UniProt P03956 100-469, limits assumed)
T2 sequence (looked up): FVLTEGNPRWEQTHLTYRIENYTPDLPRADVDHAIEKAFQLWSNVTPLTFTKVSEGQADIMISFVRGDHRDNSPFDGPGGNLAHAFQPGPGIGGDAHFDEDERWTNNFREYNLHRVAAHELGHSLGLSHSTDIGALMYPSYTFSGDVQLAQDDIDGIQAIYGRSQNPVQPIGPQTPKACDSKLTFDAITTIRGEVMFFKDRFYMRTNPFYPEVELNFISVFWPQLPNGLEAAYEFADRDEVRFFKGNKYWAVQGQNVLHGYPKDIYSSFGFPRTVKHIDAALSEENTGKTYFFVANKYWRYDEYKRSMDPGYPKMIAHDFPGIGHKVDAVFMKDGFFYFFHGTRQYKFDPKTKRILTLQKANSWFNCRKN

T3: ADAMTS4 (human, UniProt O75173 213-685, limits assumed)
T3 sequence (looked up): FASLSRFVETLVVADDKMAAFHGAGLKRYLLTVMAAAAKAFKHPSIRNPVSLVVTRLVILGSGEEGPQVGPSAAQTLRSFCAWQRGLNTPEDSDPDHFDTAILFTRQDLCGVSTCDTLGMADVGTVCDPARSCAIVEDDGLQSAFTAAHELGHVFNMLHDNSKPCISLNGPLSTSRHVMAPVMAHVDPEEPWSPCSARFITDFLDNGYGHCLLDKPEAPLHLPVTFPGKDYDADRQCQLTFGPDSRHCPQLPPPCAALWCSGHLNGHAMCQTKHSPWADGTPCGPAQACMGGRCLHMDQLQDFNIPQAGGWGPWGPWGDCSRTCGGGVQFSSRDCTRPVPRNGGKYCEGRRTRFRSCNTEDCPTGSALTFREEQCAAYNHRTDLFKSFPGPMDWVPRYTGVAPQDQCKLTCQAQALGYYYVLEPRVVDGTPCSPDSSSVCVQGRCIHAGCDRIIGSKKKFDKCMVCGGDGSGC

T4: ADAMTS5 (human, UniProt Q9UNA0 262-622, limits assumed)
T4 sequence (looked up): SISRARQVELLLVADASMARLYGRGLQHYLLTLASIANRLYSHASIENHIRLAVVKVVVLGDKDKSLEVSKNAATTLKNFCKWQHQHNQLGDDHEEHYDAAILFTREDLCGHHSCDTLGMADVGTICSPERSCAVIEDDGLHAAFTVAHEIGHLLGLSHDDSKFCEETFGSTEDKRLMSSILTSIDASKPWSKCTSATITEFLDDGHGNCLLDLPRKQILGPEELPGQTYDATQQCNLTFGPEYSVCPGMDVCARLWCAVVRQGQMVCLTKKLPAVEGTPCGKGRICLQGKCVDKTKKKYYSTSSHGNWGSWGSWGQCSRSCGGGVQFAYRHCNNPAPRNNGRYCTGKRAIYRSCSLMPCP

T5: Cathepsin G (UniProt P08311 21-244)
T5 sequence (looked up): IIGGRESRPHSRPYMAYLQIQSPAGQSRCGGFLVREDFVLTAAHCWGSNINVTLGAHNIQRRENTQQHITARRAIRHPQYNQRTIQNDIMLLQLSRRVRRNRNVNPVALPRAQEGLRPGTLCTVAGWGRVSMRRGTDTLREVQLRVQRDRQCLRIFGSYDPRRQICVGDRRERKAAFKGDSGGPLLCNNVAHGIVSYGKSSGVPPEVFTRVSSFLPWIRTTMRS


Key:
Assay in all cases: cell-based or functional assay
[1] = target: chymotrypsin
[2] = target: Elastase
[3] = target: bovine trypsin (bovine, UniProt P00760 24-246)
Chain of bovine trypsin (P00760 24-246): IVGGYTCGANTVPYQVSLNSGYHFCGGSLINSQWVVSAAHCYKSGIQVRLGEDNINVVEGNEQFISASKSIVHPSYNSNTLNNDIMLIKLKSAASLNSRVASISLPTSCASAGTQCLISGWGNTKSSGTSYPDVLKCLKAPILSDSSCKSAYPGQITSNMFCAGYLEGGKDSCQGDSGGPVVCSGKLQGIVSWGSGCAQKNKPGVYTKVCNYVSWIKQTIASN

[4] = target: T1, MMP2
[5] = target: MMP9 (human, UniProt P14780 107-707, limits assumed)
Chain of MMP9 (P14780 107-707 limits assumed): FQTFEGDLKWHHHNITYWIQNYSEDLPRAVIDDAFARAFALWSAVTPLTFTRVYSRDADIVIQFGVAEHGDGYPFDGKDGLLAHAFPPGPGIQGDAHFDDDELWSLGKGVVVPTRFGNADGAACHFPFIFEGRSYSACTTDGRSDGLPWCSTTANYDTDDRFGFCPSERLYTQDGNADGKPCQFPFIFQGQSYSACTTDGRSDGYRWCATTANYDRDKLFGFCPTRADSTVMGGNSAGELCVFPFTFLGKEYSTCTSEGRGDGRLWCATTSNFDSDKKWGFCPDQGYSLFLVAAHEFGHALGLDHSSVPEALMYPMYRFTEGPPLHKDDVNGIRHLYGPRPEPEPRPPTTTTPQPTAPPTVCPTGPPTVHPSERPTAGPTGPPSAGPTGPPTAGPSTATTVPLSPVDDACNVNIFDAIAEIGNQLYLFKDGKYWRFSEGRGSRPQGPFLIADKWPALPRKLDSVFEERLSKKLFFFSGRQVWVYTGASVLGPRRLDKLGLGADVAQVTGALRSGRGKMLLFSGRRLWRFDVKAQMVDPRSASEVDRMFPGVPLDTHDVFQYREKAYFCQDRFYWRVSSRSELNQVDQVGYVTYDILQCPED

[6] = target: MMP3 (human, UniProt P08254 100-477, limits assumed)
Chain of MMP3 (P08254 100-477 limits assumed): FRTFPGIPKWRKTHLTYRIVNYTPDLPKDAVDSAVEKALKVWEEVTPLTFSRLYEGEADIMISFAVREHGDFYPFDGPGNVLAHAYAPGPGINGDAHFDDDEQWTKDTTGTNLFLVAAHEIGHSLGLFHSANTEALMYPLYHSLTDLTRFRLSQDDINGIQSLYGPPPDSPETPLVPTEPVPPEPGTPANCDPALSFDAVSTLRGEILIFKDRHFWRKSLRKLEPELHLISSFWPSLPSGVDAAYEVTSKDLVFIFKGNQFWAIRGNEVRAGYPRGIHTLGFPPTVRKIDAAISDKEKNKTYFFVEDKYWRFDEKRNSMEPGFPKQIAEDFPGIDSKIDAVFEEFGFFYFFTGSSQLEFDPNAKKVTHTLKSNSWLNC

[7] = target: MMP13 (human, UniProt P45452 104-471, limits assumed)
[8] = target: T2, MMP1
[9] = target: T3, ADAMTS4
[10] = target: T4, ADAMTS5
[11] = target: MMP8 (human, UniProt P22894 101-467, limits assumed)
Chain of MMP8 (P22894 101-467 limits assumed): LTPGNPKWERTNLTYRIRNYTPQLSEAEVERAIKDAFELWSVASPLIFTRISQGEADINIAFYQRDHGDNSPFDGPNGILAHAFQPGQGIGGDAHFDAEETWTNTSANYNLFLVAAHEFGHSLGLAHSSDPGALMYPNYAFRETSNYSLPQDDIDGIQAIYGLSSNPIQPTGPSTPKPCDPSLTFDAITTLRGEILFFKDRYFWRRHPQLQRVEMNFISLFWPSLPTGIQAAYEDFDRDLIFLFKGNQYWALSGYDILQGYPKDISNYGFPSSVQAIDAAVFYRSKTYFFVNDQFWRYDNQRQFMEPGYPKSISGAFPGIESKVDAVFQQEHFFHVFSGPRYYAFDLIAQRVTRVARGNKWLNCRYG

[12] = target: MMP12 (human, UniProt P39900 106-470, limits assumed)
Chain of MMP12 (P39900 106-470 limits assumed): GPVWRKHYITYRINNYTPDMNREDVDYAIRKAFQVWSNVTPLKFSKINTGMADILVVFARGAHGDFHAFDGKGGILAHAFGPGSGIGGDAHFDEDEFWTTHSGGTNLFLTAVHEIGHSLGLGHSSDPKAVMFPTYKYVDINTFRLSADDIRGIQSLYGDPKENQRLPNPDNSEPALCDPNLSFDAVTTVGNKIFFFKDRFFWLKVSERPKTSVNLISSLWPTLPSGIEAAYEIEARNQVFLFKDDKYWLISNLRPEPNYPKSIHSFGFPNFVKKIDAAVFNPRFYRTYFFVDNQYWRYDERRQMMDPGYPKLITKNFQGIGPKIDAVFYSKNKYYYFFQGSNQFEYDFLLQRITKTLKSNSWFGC

[13] = target: T5, Cathepsin G

Row | Protease Inhibition (% of WT) [1] | Protease Inhibition (% of WT) [2] | Protease Inhibition (% of WT) [3] | Protease Inhibition (% of WT) [4] | Protease Inhibition (% of WT) [5] | Protease Inhibition (% of WT) [6] | Protease Inhibition (% of WT) [7] | Protease Inhibition (% of WT) [8] | Protease Inhibition (% of WT) [9] | Protease Inhibition (% of WT) [10] | Protease Inhibition (% of WT) [11] | Protease Inhibition (% of WT) [12] | Protease Inhibition (% of WT) [13] | Binder
1 | 80 % of WT | 550 % of WT | 100 % of WT | 110 % of WT | 100 % of WT | 110 % of WT | 700 % of WT | 50 % of WT | 70 % of WT | 350 % of WT | 110 % of WT | 100 % of WT |  | Variant A2M, bait region SEQ ID NO 90 (other) SVSGKPQYMVLVPSLLHTETTEKGCVLLSYLNETVTVSASLESVRGNRSLFTDLEAENDVLHCVAFAVPKSSSNEEVMFLTVQVKGPTQEFKKRTTVMVKNEDSLVFVQTDKSIYKPGQTVKFRVVSMDENFHPLNELIPLVYIQDPKGNRIAQWQSFQLEGGLKQFSFPLSSEPFQGSYKVVVQKKSGGRTEHPFTVEEFVLPKFEVQVTVPKIITILEEEMNVSVCGLYTYGKPVPGHVTVSICRKYSDASDCHGEDSQAFCEKFSGQLNSHGCFYQQVKTKVFQLKRKEYEMKLHTEAQIQEEGTVVELTGRQSSEITRTITKLSFVKVDSHFRQGIPFFGQVRLVDGKGVPIPNKVIFIRGNEANYYSNATTDEHGLVQFSINTTNVMGTSLTVRVNYKDRSPCYGYQWVSEEHEEAHHTAYLVFSPSKSFVHLEPMSHELPCGHTQTVQAHYILNGGTLLGLKKLSFYYLIMAKGGIVRTGTHGLLVKQEDMKGHFSISIPVKSDIAPVARLLIYAVLPTGDVIGDSAKYDVENCLANKVDLSFSPSQSLPASHAHLRVTAAPQSVCALRAVDQSVLLMKPDAELSASSVYNLLPEKDLTGFPGPLNDQDDEDCINRHNVYINGITYTPVSSTNEKDMYSFLEDMGLKAFTNSKIRKPKMCPQLEQYEMHGPEGLRVGSELEGRGSFYESDVMGRGHARLVHVEEPHTKLLRKYFPETWIWDLVVVNSAGVAEVGVTVPDTITEWKAGAFCLSEDAGLGISSTASLRAFQPFFVELTMPYSVIRGEAFTLKATVLNYLPKCIRVSVQLEASPAFLAVPVEKEQAPHCICANGRQTVSWAVTPKSLGNVNFTVSAEALESQELCGTEVPSVPEHGRKDTVIKPLLVEPEGLEKETTFNSLLCPSGGEVSEELSLKLPPNVVEESARASVSVLGDILGSAMQNTQNLLQMPYGCGEQNMVLFAPNIYVLDYLNETQQLTPEIKSKAIGYLNTGYQRQLNYKHYDGSYSTFGERYGRNQGNTWLTAFVLKTFAQARAYIFIDEAHITQALIWLSQRQKDNGCFRSSGSLLNNAIKGGVEDEVTLSAYITIALLEIPLTVTHPVVRNALFCLESAWKTAQEGDHGSHVYTKALLAYAFALAGNQDKRKEVLKSLNEEAVKKDNSVHWERPQKPKAPVGHFYEPQAPSAEVEMTSYVLLAYLTAQPAPTSEDLTSATNIVKWITKQQNAQGGFSSTQDTVVALHALSKYGAATFTRTGKAAQVTIQSSGTFSSKFQVDNNNRLLLQQVSLPELPGEYSMKVTGEGCVYLQTSLKYNILPEKEEFPFALGVQTLPQTCDEPKAHTSFQISLSVSYTGSRSASNMAIVDVKMVSGFIPLKPTVKMLERSNHVSRTEVSSNHVLIYLDKVSNQTLSLFFTVLQDVPVRDLKPAIVKVYDYYETDEFAIAEYNAPCSKDLGNADYKDDDDKGASHHHHHH
2 | 50 % of WT | 105 % of WT | 86 % of WT | 61 % of WT | 500 % of WT | 130 % of WT | 117 % of WT | 379 % of WT | 115 % of WT | 480 % of WT | 163 % of WT | 132 % of WT | 311 % of WT | Variant A2M, bait region SEQ ID NO 126 (other) SVSGKPQYMVLVPSLLHTETTEKGCVLLSYLNETVTVSASLESVRGNRSLFTDLEAENDVLHCVAFAVPKSSSNEEVMFLTVQVKGPTQEFKKRTTVMVKNEDSLVFVQTDKSIYKPGQTVKFRVVSMDENFHPLNELIPLVYIQDPKGNRIAQWQSFQLEGGLKQFSFPLSSEPFQGSYKVVVQKKSGGRTEHPFTVEEFVLPKFEVQVTVPKIITILEEEMNVSVCGLYTYGKPVPGHVTVSICRKYSDASDCHGEDSQAFCEKFSGQLNSHGCFYQQVKTKVFQLKRKEYEMKLHTEAQIQEEGTVVELTGRQSSEITRTITKLSFVKVDSHFRQGIPFFGQVRLVDGKGVPIPNKVIFIRGNEANYYSNATTDEHGLVQFSINTTNVMGTSLTVRVNYKDRSPCYGYQWVSEEHEEAHHTAYLVFSPSKSFVHLEPMSHELPCGHTQTVQAHYILNGGTLLGLKKLSFYYLIMAKGGIVRTGTHGLLVKQEDMKGHFSISIPVKSDIAPVARLLIYAVLPTGDVIGDSAKYDVENCLANKVDLSFSPSQSLPASHAHLRVTAAPQSVCALRAVDQSVLLMKPDAELSASSVYNLLPEKDLTGFPGPLNDQDDEDCINRHNVYINGITYTPVSSTNEKDMYSFLEDMGLKAFTNSKIRKPKMCPQLEQYEMHGPEGEGEGEGIPENFFGVSEDLVVQISELEGRGSVEEPHTKLRKYFPETWIWDLVVVNSAGVAEVGVTVPDTITEWKAGAFCLSEDAGLGISSTASLRAFQPFFVELTMPYSVIRGEAFTLKATVLNYLPKCIRVSVQLEASPAFLAVPVEKEQAPHCICANGRQTVSWAVTPKSLGNVNFTVSAEALESQELCGTEVPSVPEHGRKDTVIKPLLVEPEGLEKETTFNSLLCPSGGEVSEELSLKLPPNVVEESARASVSVLGDILGSAMQNTQNLLQMPYGCGEQNMVLFAPNIYVLDYLNETQQLTPEIKSKAIGYLNTGYQRQLNYKHYDGSYSTFGERYGRNQGNTWLTAFVLKTFAQARAYIFIDEAHITQALIWLSQRQKDNGCFRSSGSLLNNAIKGGVEDEVTLSAYITIALLEIPLTVTHPVVRNALFCLESAWKTAQEGDHGSHVYTKALLAYAFALAGNQDKRKEVLKSLNEEAVKKDNSVHWERPQKPKAPVGHFYEPQAPSAEVEMTSYVLLAYLTAQPAPTSEDLTSATNIVKWITKQQNAQGGFSSTQDTVVALHALSKYGAATFTRTGKAAQVTIQSSGTFSSKFQVDNNNRLLLQQVSLPELPGEYSMKVTGEGCVYLQTSLKYNILPEKEEFPFALGVQTLPQTCDEPKAHTSFQISLSVSYTGSRSASNMAIVDVKMVSGFIPLKPTVKMLERSNHVSRTEVSSNHVLIYLDKVSNQTLSLFFTVLQDVPVRDLKPAIVKVYDYYETDEFAIAEYNAPCSKDLGNADYKDDDDKGASHHHHHH
